In article PMC11481384, “Ponicidin Promotes Hepatocellular Carcinoma Mitochondrial Apoptosis by Stabilizing Keap1‐PGAM5 Complex” (Advanced Science, 2024):

Molecular target: T1, Keap1 Kelch domain (amino acid residues 309 to 624) (human, UniProt Q14145 309-624)
T1 construct: Keap1, Kelch domain, Gene ID 9817 (the human gene), amino acid residues 309 to 624; The species is not put in words; it follows from the printed Gene ID 9817; also called Kelch domain of Keap1; source: E. coli BL21 (Codonplus), purified (Ni-NTA, HiTrap QHP, Superdex 200 Increase)
Assay: native gel or EMSA; purified Kelch, Δ54‐PGAM5 and ponicidin incubated on ice for 30 min; 7% non‐denatured gel, 4 °C, 90 V, 1 h; Coomassie staining
Settings: both partners purified

T1 sequence (Q14145 309-624): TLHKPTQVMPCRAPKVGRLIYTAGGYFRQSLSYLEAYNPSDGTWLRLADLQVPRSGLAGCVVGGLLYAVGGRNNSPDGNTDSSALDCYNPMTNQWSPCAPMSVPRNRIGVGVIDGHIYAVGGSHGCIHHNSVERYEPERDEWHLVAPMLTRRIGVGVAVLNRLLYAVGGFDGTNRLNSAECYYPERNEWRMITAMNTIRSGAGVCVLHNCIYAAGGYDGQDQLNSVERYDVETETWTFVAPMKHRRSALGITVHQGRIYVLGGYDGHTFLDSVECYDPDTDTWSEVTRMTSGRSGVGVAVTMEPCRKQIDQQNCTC

B1: ∆54‐PGAM5 (amino acids from number 54 to 289) (domain or fragment, human, UniProt Q96HS1 54-289, looked up)
chain: GPGVWDPNWDRREPLSLINVRKRNVESGEEELASKLDHYKAKATRHIFLIRHSQYHVDGSLEKDRTLTPLGREQAELTGLRLASLGLKFNKIVHSSMTRAIETTDIISRHLPGVCKVSTDLLREGAPIEPDPPVSHWKPEAVQYYEDGARIEAAFRNYIHRADARQEEDSYEIFICHANVIRYIVCRALQFPPEGWLRLSLNNGSITHLVIRPNGRVALRTLGDTGFMPPDKITRS
notes: PGAM5, Gene ID 192111 (the human gene), amino acid residues 54 to 289; The species is not put in words; it follows from the printed Gene ID 192111; also called Δ54‐PGAM5; PGAM5 domain; source: E. coli BL21 (Codonplus), purified (Ni-NTA, HiTrap QHP, Superdex 200 Increase)
B1: binds.
